The values below come from patent publication US20250136692A1.

The chains are these.
B1: 5C2-3 (antibody, human IgG1, kappa, V domains shown)
VH: QVQLVQSGAEVKKPGASVKVSCKASGYTFTSYWMHWVRQAPGQGLEWMGRIHPSDSDTNYNQKFKGRVTLTVDTSTSTAYMELSSLRSEDTAVYYCAPKGNYVVRFAYWGQGTLVTVSS
VL: DIVMTQSPSSLSASVGDRVTITCRASQGIRNDLGWYQQKPGKAPKLLIYAASSLQSGVPSRFSGSGSDTDFTLTISSLQPEDFATYYCLQDYNYPWTFGQGTKVDIKR
B2: 5C2-6 (antibody, human IgG1, kappa, V domains shown)
VH: QVQLVQSGAEVKKPGASVKVSCKASGYTFTSYWMHWVRQAPGQGLEWMGRIHPSDSDTNYNQKFKGRVTLTVDTSTSTAYMELSSLRSEDTAVYYCAPYVDLESGFAYWGQGTLVTVSS
VL: DIAMTQTPSSLSASIGDRVTIACRASQGISSALAWYQQKPGRTPKLLIFDASTLQSGVPSRFSGSGSGTDFTLTISSLQPEDFATYYCQQFNTYSSVTFGQGTRLEIKR
B3: 5C2-1 (antibody, human IgG1, kappa, V domains shown)
VH: QVQLVQSGAEVKKPGASVKVSCKASGYTFNSYWMHWVRQAPGQGLEWMGRIHPRGIHTNYNQKFKGRVTLTVDTSTSTAYMELSSLRSEDTAVYYCAPSSSYAWAFAHWGQGTLVTVSS
VL: DIQMTQSPSSLSASVGDRVTITCRASQDVSTALAWYQQKPGKAPKLLIYWASTRHSGVPDRFSGSGSGTDFTLTISSLQPEDFATYYCQQHYRSPGTFGGGTKVEIKR
B4: 5C2-8 (antibody, human IgG1, kappa, V domains shown)
VH: QVQLVQSGAEVKKPGASVKVSCKASGYTFNSYLMHWVRQAPGMGLEWMGRIRPNYSDTNYNQKFKGRVTLTVDTSTSTAYMELSSLRSEDTAVYYCAPYGNNASGFSYWGQGTLVTVSS
VL: DIQMTQSPSSLSASVGDRVTITCRASQDVSTALAWYQQKPGKAPKLLIYWASTRHSGVPDRFSGSGSGTDFTLTISSLQPEDFATYYCQQHYRSPWTFGGGTKVEIKR
B5: 5C2-9 (antibody, human IgG1, kappa, V domains shown)
VH: QVQLVQSGAEVKKPGASVKVSCKASGQTFTNYLMHWVRQAPGQGLEWMGRIPLSDRDTNYNQKFKGRVTLTVDTSTSTAYMELSSLRSEDTAVYYCAPYGRSASGFSSWGQGTLVTVSS
VL: DIQMTQSPSSLSASVGDRVTITCRASQDVSTALAWYQQKPGKAPKLLIYWASTRHSGVPDRFSGSGSGTDFTLTISSLQPEDFATYYCQQGSSTPLTFGGGTKVEIKR
B6: 5C2-5 (antibody, human IgG1, kappa, V domains shown)
VH: QVQLVQSGAEVKKPGASVKVSCKASGYTFGIYWMHWVRQAPGQGLEWMGRILPSNGYTNYNQKFKGRVTLTVDTSTSTAYMELSSLRSEDTAVYYCAPYGIYTRDFSHWGQGTLVTVSS
VL: DIQMTQSPSSLSASVGDRVTITCRASQDVSTALAWYQQKPGKAPKLLIYWASTRHSGVPDRFSGSGSGTDFTLTISSLQPEDFATYYCQQRDTTPRTFGGGTKVEIKR
B7: 5C2-4 (antibody, human IgG1, kappa, V domains shown)
VH: QVQLVQSGAEVKKPGASVKVSCKASGYTFTRYWMHWVRQAPGQGLEWMGRIHPTDSVTNYNQKFKGRVTLTVDTSTSTAYMELSSLRSEDTAVYYCAPDVNYARAFAHWGQGTLVTVSS
VL: DIQMTQSPSSLSASVGDRVTITCRASQDVSTALAWYQQKPGKAPKLLIYWASTRHSGVPDRFSGSGSGTDFTLTISSLQPEDFATYYCQQHYGSPWTFGGGTKVEIKR
B8: 5C2-2 (antibody, human IgG1, kappa, V domains shown)
VH: QVQLVQSGAEVKKPGASVKVSCKASGQTFTSYRMHWVRQAPGQGLEWMGRILPIRSDTNYNQKFKGRVTLTVDTSTSTAYMELSSLRSEDTAVYYCARDAGYGSLFAAWGQGTLVTVSS
VL: DIQMTQSPSSLSASVGDRVTITCRASQDVSTALAWYQQKPGKAPKLLIYWASTRHSGVPDRFSGSGSGTDFTLTISSLQPEDFATYYCQQHDSSPGTFGGGTKVEIKR
B9: 5C2-7 (antibody, human IgG1, kappa, V domains shown)
VH: QVQLVQSGAEVKKPGASVKVSCKASGYTFTSYWMHWVRQAPGMGLEWMGRIHPIYRDTNYNQKFKGRVTLTVDTSTSTAYMELSSLRSEDTAVYYCAPYVNYGDGFAYWGQGTLVTVSS
VL: DIQMTQSPSTLSASVGDRVTITCRASQDVSTALAWYQQKPGKAPKLLIYWASTRHIGVPDRFSGSGSGTDFTLTISSLQPEDFATYYCHQDYITPRTFGGGTKVEIKR
B10: 4G9-1 (antibody, human IgG1, kappa, V domains shown)
VH: QVQLVQSGAEVKKPGASVKVSCKASGYTFTTYGINWVRQATGQGLEWMGWINTYSGVPGYAQKFQGRVTMTLNTSISTAYMELSSLRSEDTAVYYCARGGRGIAYWGQGTLVTVSS
VL: DIQLTQSPSSLSASVGDRVTITCRASQGISNSLAWFQQKPGKVPKRLIYAASNLQSGVPSRFSGSGSGTEFTLTISSLQPEDFATYYCQQSYSTPYTFGQGTKLEIKR
B11: 4G9-8 (antibody, human IgG1, kappa, V domains shown)
VH: QVQLVQSGAEVKKPGASVKVSCKASGYTFTTYGINWVRQATGQGLEWMGWINTYSGVPGYAQKFQGRVTMTLNTSISTAYMELSSLRSEDTAVYYCARVERGDAYWGQGTLVTVSS
VL: EIVLTQSPSSLSASVGDRVTITCRASQDIRRDFGWYQQKPGLAPELLIYDASRLRSGVPSRFSGSGSGTLFTFTITNLQPEDFATYYCLQDYDFPRTFGQGTKVDIKR
B12: 4G9-10 (antibody, human IgG1, kappa, V domains shown)
VH: QVQLVQSGAEVKKPGASVKVSCKASGYTFTTYGINWVRQATGQGLEWMGWINTYSGVPGYAQKFQGRVTMTLNTSISTAYMELSSLRSEDTAVYYCARGSKGDAYWGQGTLVTVSS
VL: DIVMTQSPSSLSASVGDRVTITCRASQSISTWLAWFQQKPGKAPKLLIYKASSLKSGVPSRFSGSGSGTEFTLTISSLQPDDFATYYCQQSYSTPWTFGQGTKLEIKR
B13: 4G9-3 (antibody, human IgG1, kappa, V domains shown)
VH: QVQLVQSGAEVKKPGASVKVSCKASGYTFTTYGINWVRQATGQGLEWMGWINTYSGVPGYAQKFQGRVTMTLNTSISTAYMELSSLRSEDTAVYYCARGGRESAYWGQGTLVTVSS
VL: EIVMTQSPATLSVSPGERATLSCRASQSIGTSLHWYQQKPGGAPRLLIKYASESITGIPARFSGSGSGTEFTLTISSLQSEDFAVYYCQQSNSWPYTFGQGTKLEIKR
B14: 4G9-5 (antibody, human IgG1, kappa, V domains shown)
VH: QVQLVQSGAEVKKPGASVKVSCKASGYTFTTYGINWVRQATGQGLEWMGWINTYSGVPGYAQKFQGRVTMTLNTSISTAYMELSSLRSEDTAVYYCARGVRVFYHWGQGTLVTVSS
VL: EIVMTQSPATLSVSPGERATLSCRASQSIGTSLHWYQQKPGGAPRLLIKYASESITGIPARFSGSGSGTEFTLTISSLQSEDFAVYYCQQSNSWPYTFGQGTKLEIKR
B15: 4G9-9 (antibody, human IgG1, kappa, V domains shown)
VH: QVQLVQSGAEVKKPGASVKVSCKASGYTFTTYGINWVRQATGQGLKWMGWINTYSGVPGYAQKFQGRVTMTLNTSISTAYMELSSLRSEDTAVYYCARGVHGVSYWGQGTLVTVSS
VL: EIVMTQSPATLSVSPGERATLSCRASQSIGTSLHWYQQKPGGAPRLLIKYASESITGIPARFSGSGSGTEFTLTISSLQSEDFAVYYCQQSNSWPYTFGQGTKLEIKR

The target in one assay is hPD-1-HIS (human) (UniProt Q15116). Kind of assay: ELISA, plate-coated PD-1 protein, protocol of Example 1.
hPD-1-HIS (human), sequence (Q15116 25-167 limits assumed): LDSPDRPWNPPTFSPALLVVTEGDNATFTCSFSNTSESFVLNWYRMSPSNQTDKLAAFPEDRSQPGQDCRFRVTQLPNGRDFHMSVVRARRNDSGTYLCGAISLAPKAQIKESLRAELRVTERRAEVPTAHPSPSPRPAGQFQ
On to B1, for which the hPD-1-HIS Binding (OD 450) came out at 0.345 OD 450. Still for that read-out and setting: under B2 stands 0.267 OD 450. The molecule B3 yielded a hPD-1-HIS Binding (OD 450) of 0.791 OD 450.

Take B4: the hPD-1-HIS Binding (OD 450) is 0.262 OD 450. Take B5: the hPD-1-HIS Binding (OD 450) was 0.255 OD 450.

Regarding B6, the hPD-1-HIS Binding (OD 450) came to 0.286 OD 450. B7 gave a hPD-1-HIS Binding (OD 450) of 0.312 OD 450. B8 displayed a hPD-1-HIS Binding (OD 450) of 0.395 OD 450. For the molecule B9, the hPD-1-HIS Binding (OD 450) was found to be 0.264 OD 450.

For the next assay the target is unchanged. Kind of assay: ELISA, plate-coated PD-1 protein, anti-human IgG detection. For orientation: ELISA stands for enzyme-linked immunosorbent assay.
As for B10, the hPD-1-HIS Binding (OD 450) was determined as 0.874 OD 450. The molecule B11 displayed a hPD-1-HIS Binding (OD 450) of 0.346 OD 450. With B12, the hPD-1-HIS Binding (OD 450) turned out to be 0.287 OD 450.

On to B13, for which the hPD-1-HIS Binding (OD 450) worked out at 0.451 OD 450. The molecule B14 came in with a hPD-1-HIS Binding (OD 450) of 0.383 OD 450. B15 displayed a hPD-1-HIS Binding (OD 450) of 0.31 OD 450.
